{"source": "patent US20260035452A1", "about": "(THE UNIVERSITY OF BIRMINGHAM, priority 2022, published 2026)", "molecules": {"B1": {"name": "IL-17: recombinant mouse IL-17 purchased from R&D System; full-length cytokine used as comparator and stimulus (protein, UniProt Q62386 26-158, looked up)", "Interleukin-17A": "AAIIPQSSACPNTEAKDFLQNVKVNLKVFNSLGAKVSSRRPSDYLNRSTSPWTLHRNEDPDRYPSVIWEAQCRHQRCVNAEGKLDHHMNSVLIQQEILVLKREPESCPFTFRVEKMLVGVGCTCVASIVRQAA"}}, "test_system": "dorsal air pouch of mice", "assay": "In vivo air pouch model", "details": "1 μg/mice into air pouch, 24 h", "procedure": "FIG. 3: Mice were treated with IL-17 vehicle (Ctrl), IL-17 (1 μg/mice) alone (IL-17) or peptide (FM-0410) (1 μg/mice) and thereafter total cell number from pouches inflammatory exudates was evaluated at 24 h. Data were expressed as millions of cells for pouch and presented as means±S.D. of n=7 mice per group. Statistical analysis was conducted by one-way ANOVA followed by Bonferroni's for multiple comparisons. ^##P≤0.01, ^###P≤0.005 vs Ctrl group; *P≤0.05 vs IL-17 group.\nFIG. 4: Inflammatory supernatants obtained from the pouch cavities were assayed using a Proteome Profiler Cytokine Array for Ctrl, IL-17 and FM-0410 experimental group. Densitometric analysis is presented as heatmap. Data (expressed as INT/mm2) are presented as means±S.D. of positive spots of three independent experiments run each with n=7 mice per group.\nFIG. 5: Mice were treated with IL-17 vehicle (Ctrl), IL-17 (1 μg/mice), or peptide (FM-0410) (1 μg/mice) and inflammatory fluids were assayed by Elisa for IL-6. Data were expressed as pg/ml and presented as means±S.D. of n=7 mice per group. Statistical analysis was conducted by one-way ANOVA followed by Bonferroni's for multiple comparisons. ^##P≤0.01 vs CTRL group. […]\nSpecifically, dorsal air pouches were prepared by injection of 2.5 ml of air on day 0 and day 3 as previously described (Maione et al., 2009). […] Inflammatory exudates were collected and measured to evaluate the level of inflammatory cyto-chemokines. Cell number was determined by TC20 automated cell counter (Bio-Rad, Milan, Italy) using Bio-Rad's TC20 automated cell counter uses disposable slides, TC20 trypan blue dye (0.4% trypan blue dye w/v in 0.81% sodium chloride and 0.06% potassium phosphate dibasic solution) and a CCD camera to count cells based on the analyses of capture images (Maione et al., 2018).\nMethods: The levels of IL-6 in the cellular and air pouch inflammatory supernatants at 24 h were measured using commercially available enzyme-linked immunosorbent assay kit (ELISA kit, R&D System, Milan, Italy) according to the manufacturer instructions. […]"}
{"molecule": "B1", "values": [{"measurement": "cyto-chemokines profile of pouch fluid (Proteome Profiler Cytokine Array)", "result": "significant increase of cyto-chemokines profile compared to ctrl group"}, {"measurement": "level of IL-6 in pouch fluids", "result": "increased level of IL-6 compared to control group"}, {"measurement": "number of inflammatory leukocytes (total cell number from pouch exudates)", "result": "significant differences in the number of inflammatory leukocytes compared to control group"}]}
